Reference: US20250108100A1, “C-TERMINAL FRAGMENT OF APOLIPOPROTEIN E AND APPLICATION THEREOF IN INHIBITING y-SECRETASE ACTIVITY” (SYNPHATEC (SHANGHAI) BIOPHARMACEUTICAL TECHNOLOGY CO., LTD., priority 2022, published 2025)
“Also recorded” adds a separate entry of the source.

Tests used:
[1] = test system: human APP co-expressed in HEK 293T cells; assay: α-CTF produced by APP co-expressed in HEK 293T cells (Western blot); type: cell-based; conditions: for α-CTF produced by co-expressed APP: Western blot
Protocol: (§1) • a) A plasmid expressing the target protein in mammalian cells was constructed, and the protein expression promoter is CAG. • b) The target protein was expressed in HEK 293T cell line. Cells were subcultured one day before transfection, and transfection was performed when the degree of cell adhesion reached 70%-80%. The transfection reagent was lipofectamine2000 (ThermoFisher). • c) 4-6 hours post transfection, the medium were replaced with fresh cell culture medium. • d) 36-48 hours post transfection, the cells were lysed (10% 1M tris-HCl (pH=6.8), 4% SDS, 20% glycerol, 0.01% bromophenol blue), and the protein samples were collected and used for Western blot or stored in a −80° C. freezer. • e) Polyacrylamide gel electrophoresis. Before protein loading, the protein was boiled at 98° C. for 10 min, and then centrifuged at 12000 rpm for 10 min. Electrophoresis: 80V for the upper stacking gel; 120V for the lower separating gel. • f) Protein transfer. The filter paper was soaked in the electrophoresis solution before use, and the PVDF membrane was put in methanol for 10s to activate, and the gel after electrophoresis was taken out from the electrophoresis tank, put in the order of filter paper—PVD membrane—gel-filter paper from bottom to top, and they were put into the transfer instrument, with transferring in constant current at 0.1 A for 70 min. • g) Blocking and antibody incubation: the transferred PVDF membrane was placed in 5% BSA/TBST blocking solution, and blocked on a shaker at room temperature for 1 hour. The primary antibody was used to incubate at 4° C. overnight on a shaker (12-16 h); 1×TBST was used to wash three times, once every 10 minutes; the secondary antibody was used to incubate, shaked at room temperature for 1-2 h; 1×TBST was used to wash three times, once every 10 minutes. • h) Imaging by development: development was performed with ECL chemiluminescence hypersensitive chromogenic reagent.
Plasmids were transfected in HEK 293T or N2A cells for 36-48 hours and then lysed in cell lysis buffer [10% 1M tris-HCl (pH=6.8), 4% SDS, 20% glycerol, 0.01% bromophenol blue]. Lysates were shaken at room temperature for 10 min, then boiled for 10 min, and centrifuged at 12,000×g for 10 min. Proteins were run on 8% or 12% Tris-glycine SDS-PAGE and transferred to PVDF membranes (Life Technologies). Samples were incubated overnight at 4° C. with primary antibody diluted in 5% BSA buffer (in 1×TBST). After washing 3 times with 1×TBST, they were incubated with secondary antibody diluted in 5% BSA buffer (in 1×TBST) for 2 hours at room temperature. Finally, after washing 3 times with 1×TBST, the signal was detected by ECL Western blotting substrate (Solarbio, PE0010).
Data were analyzed by GraphPad Prism software (v6) using unpaired, paired, or one-sample t-tests. Aβ40 and Aβ42 levels were normalized to the corresponding GFP controls. α-CTF levels were normalized to FL-APP and corresponding GFP controls. All data are represented as mean±SEM. Statistical significance was defined as p<0.05. One, two, three and four stars (*) in the graph indicate p-values <0.05, <0.01, <0.001 and <0.0001, respectively.

5×FAD mice = assay: Distribution of neuronally expressed ApoE around amyloid plaques in 5×FAD mice (immunofluorescence); type: in vivo, mouse
Protocol: Mice were anesthetized with isoflurane and perfused with 4% PFA. Dissected mouse brains were fixed overnight in 4% PFA and cryoprotected overnight in 30% sucrose. A cryostat (Leica CM3050S) was used to obtain frozen brain slices ([…]) from fixed and cryoprotected mouse brains. Floating slices were washed 3 times with 1×PBS and then permeabilized with 0.5% Triton-X in 1×PBS for 30 minutes. After blocking with 5% BSA in 1×PBS at room temperature for 1 h, the slices were incubated overnight at 4° C. in 5% BSA (in 1×PBS) buffer comprising the primary antibody. Slices were washed 3 times with 1×PBS and incubated with secondary antibody diluted in 5% BSA (1×PBS) buffer for 1 hour at room temperature. Samples were then washed 3 times with 1×PBS and mounted with Prolong Gold Antifade Mountant (Life Technology).
After being deeply anesthetized with isoflurane, mice (5 weeks old) were placed in a stereotaxic apparatus (RWD Instruments). The zero point (x, y, z, 0, 0, 0) is Bregma. Lentivirus (lentivirus-GFP, lentivirus-ApoE and lentivirus-ApoE-IRES-GFP) and AAV (AAV2/9-hSyn-EGFP-WPRE-pA and AAV2/9-hSyn-ApoECT; purchased from Shanghai Taitool Bioscience Co. Ltd.) were injected into the cortex (x, y, z, +/−1.6, 0, −1) or hippocampus (x, y, z, +/−1.5, −2, −1.5), injected 1 ul on each injection site. The mice were then returned to their cages for rehabilitation after surgery.

[2] = test system: ADAM10, BACE1, PS1 and PS2; assay: mRNA (qRT-PCR) and protein (Western blot) expression of APP secretases in HEK 293T cells; type: cell-based, human
Protocol: as §1, with “reagent. […]” for “reagent.”
Quantitect SYBR-Green qRT-PCR kit from Qiagen was used to quantitatively analyze the relative content of mRNA. qRT-PCR primers were listed in Table 2. […]

B1: ApoE CT: C-terminal fragment of ApoE, positions 216-299 of SEQ ID NO: 12; SEQ ID NO: 33 (protein)
chain: ARMEEMGSRTRDRLDEVKEQVAEVRAKLEEQAQQIRLQAEAFQARLKSWFEPLVEDMQRQWAGLVEKVQAAVGTSAAPVPSDNH
level of α-CTF compared with ApoE2 [1]: significantly increases the level of α-CTF
increase of α-CTF in the presence of GI254023X ([1]; 1 μM ADAM10 inhibitor GI254023X): approximately 4 fold
α-CTF in the presence of PF03084014 ([1]; 1 μM γ-secretase inhibitor PF03084014): failed to further increase α-CTF
α-CTF when β-secretase inhibited by AZD3839 ([1]; 5 μM AZD3839): still increases α-CTF
α-CTF produced by APP co-expressed with PS1 ([1]; APP and PS1 co-expressed, PF03084014 at 1 μM): significantly increases α-CTF; also recorded: can increase the production of α-CTF
γ-cleavage of APP (α-CTF) when co-expressed with γ-secretase ([1]; APP, γ-secretase and ApoE CT co-expressed): still inhibited γ-cleavage of APP
α-CTF produced by co-expressed APP ([1]; vs GFP control): significantly increased α-CTF; also recorded: increased the α-CTF
α-CTF produced by co-expressed APP ([1]; vs GFP control, listed as human ApoE CT): also increase α-CTF
increase in α-CTF levels ([1]; vs GFP control): more than 6 fold
α-CTF level ([1]; vs GFP control): more than 5 times the original level
migration to and accumulation around amyloid plaques (5×FAD mice; AAV expression in cortex, DG and CA3 neurons): migrated to the subiculum and accumulated in amyloid plaques
accumulation around amyloid plaques (5×FAD mice; lentiviral vectors): a similar distribution pattern was detected around amyloid plaques
protein expression of APP metabolizing enzymes ([2]; Western blot): does not affect the protein expression
mRNA expression of APP metabolizing enzymes ([2]; qRT-PCR): does not affect the mRNA expression
mRNA and protein expression of ADAM10, BACE1, PS1 and PS2 ([2]; qRT-PCR and Western blot, vs GFP control): does not change the mRNA and protein expression; also recorded: not altered
